In patent publication US20060188440A1 (FOX CHASE CANCER CENTER, published 2006):

T1: MISIIR expressed on IGROV-1 cells (UniProt Q16671 18-573, limits assumed)
T1 construct: whole, on cells; also called MIS type II receptor
T1 sequence (looked up): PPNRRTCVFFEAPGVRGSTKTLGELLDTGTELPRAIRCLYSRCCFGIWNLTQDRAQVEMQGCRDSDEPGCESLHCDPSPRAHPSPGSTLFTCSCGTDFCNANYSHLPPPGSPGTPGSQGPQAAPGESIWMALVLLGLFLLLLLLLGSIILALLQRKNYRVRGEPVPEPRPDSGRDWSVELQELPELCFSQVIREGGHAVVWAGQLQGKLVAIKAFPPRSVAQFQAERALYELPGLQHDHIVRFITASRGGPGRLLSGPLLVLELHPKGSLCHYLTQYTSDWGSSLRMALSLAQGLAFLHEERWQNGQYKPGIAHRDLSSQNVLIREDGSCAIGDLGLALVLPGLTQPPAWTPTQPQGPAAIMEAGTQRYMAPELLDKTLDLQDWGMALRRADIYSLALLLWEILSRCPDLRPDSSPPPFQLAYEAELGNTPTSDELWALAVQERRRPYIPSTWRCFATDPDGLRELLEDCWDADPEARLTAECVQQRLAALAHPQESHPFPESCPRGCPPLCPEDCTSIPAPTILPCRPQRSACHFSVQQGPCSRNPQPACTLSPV

B1: anti-MISIIR scFv of clone #7 (scFv)
scFv: MAQVQLVQSGTEVKRPGASVKISCRATGYTFSDYGISWMRQAPGQGLEWMGWISAYNGNTNYAQKLQGRVTMTTDTSTSTAYMELRSLRYDDTAVYYCARDGRRGSGIYWGVYYYNGMDVWGQGTTVTVSSGGGGSGGGGSGGGGSQPVLTQPPSASGTPGQRVTISCSGSRSNIGRNTVNWYQQVPGMAPKLLIYSNNQRPSGVPDRFSGSKSGTSASLAISGLQSEDEADYYCAAWDDSLNGVVFGGGTKLTVLGQPKAAP
notes: Expressed from pCYN (pUC119mychis) with myc and His tags
B2: anti-MISIIR scFv of clone #17 (scFv)
scFv: MAQVTLKESGPTLVKPTQTLTLTCTFSGFSLTTSGVGVGWIRQAPGKAPEWLALIDWDDDKYYSTSLKTRLTISKDTSKNQVVLTMTNMDPVDTATYYCARDSYYGSGSHFDFWGQGTLVTVSSGGGGSGGGGSGGGGSSYELTQPPSVSVSPGQTATITCSGHDLRNKYAHWYQQKPGQSPVLVVYQDAKRPSGIPERFSGSNSGNTATLTISGTQAMDEADYYCQTWDRSTVVFGGGTKLTVLGQPKAAPSAA
notes: Expressed from pCYN (pUC119mychis) in E. coli and purified by IMAC; It carries C-terminal myc and His tags
B3: scFv-Fc of clone #7 (Fc fusion)
scFv: QVQLVQSGTEVKRPGASVKISCRATGYTFSDYGISWMRQAPGQGLEWMGWISAYNGNTNYAQKLQGRVTMTTDTSTSTAYMELRSLRYDDTAVYYCARDGRRGSGIYWGVYYYNGMDVWGQGTTVTVSSGGGGSGGGGSGGGGSQPVLTQPPSASGTPGQRVTISCSGSRSNIGRNTVNWYQQVPGMAPKLLIYSNNQRPSGVPDRFSGSKSGTSASLAISGLQSEDEADYYCAAWDDSLNGVVFGGGTKLTVL
notes: Bivalent fusion secreted from mammalian cells; The F105 VH / pelB leader is not part of the secreted protein; Copies '2' follows from 'bivalent'; also called sFv-IgG fusion protein; not shown: Human IgG1 hinge-CH2-CH3 of the hinge stuffer vector, and the junction to it
B4: GY4 scFv antibody molecule (scFv)
scFv: MAQITLKESGPTLVKPTQTLTLTCTVSGFSLSNARMGVSWIRQPPGKALEWLALIYRDNDKRYNPSLKSRLTITKDTSKNQVVLTMSNMDPVDTATYYCAHSLVVPAANPFDYWGQGTLVTVSSSASGAELGGGGSGGGGSGGGGSTSQAVLTQPSSLSASPGASASLTCTLRSGINVGTYRIYWYQQKPGSPPQYLLRYKSDSDKQKGSGVPSRFSGSKDASANAGILLISGLQSEDEADYYCMIWHTSAYVFGTGTKVTVLGSS
B5: M9 scFv antibody molecule (scFv)
scFv: MAQVQLVQSGAEVKKPGASVKVSCKASGYTFTSYDINWVRQATGQGLEWMGWMNPNSGNTGYAQKFQGRVTMTRNTSTNTAYMELTSLTSEDTAVYYCARGSPSPMNVWGQGTTVTVSSGGGGSGGGGSGGGGSQPVLTQPHSVSESPGKTVTISCTRSSGSIANDYVQWFQQRPGSAPTIVIYEDYRRPSGVPDRFSGSIDSSSNSASLTISGLKTEDEADYYCQSYDSSNPYVVFGGGTKLTVLGQPKAAPSAAA
B6: scFv antibody molecule of clone #29 (scFv)
scFv: MAQVQLVQSGGGLVQPGGSLRLSCAASGFTVSSNYMSWVRQAPGKGLEWVSAISGSGGSTYYADSVKGRFTISRDNSKNTLYLQMNSLRAEDTAVYYCATRPSRGSSGWYGGDYWGQGTLVTVSSGGGGSGGGGSGGGGSSYELTQPPSTSGTPGQRVTISCSGSTSNIATNNVNWYQFLPGTAPKLLMYRNDQRPAGVPDRFSGSKSGTSASLAISGLQPEDEADYYCAAWDDSLGGEVFGTGTKVNVLGQPKAAPSAA

Columns and labels:
[1] = molecular target: T2, MISIIR-Fc ECD fusion protein (human, UniProt Q16671 18-149); assay: SPR (BIAcore 1000), MISIIR-Fc ECD on CM5 chip (600 RU), serially diluted scFv
T2 construct: extracellular domain; Two orientations were made (ECD 5' or 3' of Fc); The secretion signal from the vector is not part of the secreted protein; also called MISIIR-Fc fusion protein; MISIIR ECD; not shown: tobacco etch virus cleavage site between MISIIR and Fc; human IgG1 Fc domain; C-terminal c-myc tag and 6xHis tag from the pSecTag2/Hygro vector
Method: (§1) Surface plasmon resonance (SPR) technology was used to determine the binding of the anti-MISIIR molecules to MISIIR ECD. The SPR response reflects a change in the mass concentration as molecules bind or dissociate from an antigen immobilized on a sensor chip. These studies were performed on a BIAcore 1000 instrument. The MISIIR-Fc ECD fusion protein target antigen was coated on a CM5 chip at a concentration of 5,000 resonance units (RU). The anti-MISIIR antibody molecules were then flowed over the chip and the difference in the response units (RU) between the start point and the end was determined. A negative control protein (Fc) was coated on a chip at 4,800 RU and was used to rule out binding to the Fc portion of the MISIIR-Fc fusion protein. The association and dissociation rates, and the affinity of each molecule for MISIIR ECD were determined by passing serially diluted samples over an MISIIR-Fc ECD coated chip with a lower concentration of target antigen (600 RU) as per the BIAcore manufacturer's instructions. The evaluation of the data was done using BIAEvaluation 3.0 software.

[2] = molecular target: T2, MISIIR-Fc ECD fusion protein; assay: SPR (BIAcore 1000), chip coated with MISIIR (MISIIR-Fc ECD fusion protein), scFv-Fc flowed over; analyte concentration not given; time unit not given
Method: as §1

[3] = molecular target: T1, MISIIR expressed on IGROV-1 cells; assay: flow cytometry (FACS) on IGROV-1 cells, detection with fluorescein-conjugated goat anti-human IgG; concentration not given
Method: The binding of the antibodies was also tested in a standard fluorescence-activated cell sorter (FACS) assay.

[4] = molecular target: T2, MISIIR-Fc ECD fusion protein; assay: assay not named in the sentence (ELISA / SPR of Example 1)

Row | Binder | Kd [1] [nM] | binding result [4] | further results
1 | B1 | 300 | – | –
2 | B2 | 90 | – | –
3 | B3 | – | – | binding result [2]: binds; binding result [3]: binds
4 | B4 | – | binds | –
5 | B5 | – | binds | –
6 | B6 | – | binds | –
